The text below walks through data of the supplement of paper PMC9112550, “Optimization of the antimicrobial peptide Bac7 by deep mutational scanning” (BMC Biology, 2022).
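Also: peptides expressed intracellularly from a pBAD plasmid library in pooled LB shake-flask culture, induced with 0.3% L-arabinose, DNA abundance read by NGS, three biological replicates, DESeq2 with apeglm shrinkage.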

The series has as its system Escherichia coli TOP10. Nature of the series: shrunken log2 fold change of peptide-encoding DNA abundance (4.5 h post-induction vs induction); higher = less antimicrobial activity (less host growth inhibition). As to conditions: time post-induction: 4.5 h; library: site-saturation at positions 5, 18, 19, 20.
Consider RRIRHRPPRLPRPRPRPWPTPRP, for which the “shrunken log2 fold change” value was found to be 0.103.

With RRIRRRPPRLPRPRPRPMEAPRP, the “shrunken log2 fold change” value was 0.0829.

Turning to RRIRDRPPRLPRPRPRPHARPRP, the “shrunken log2 fold change” value came out at 0.0493.

As to RRIRTRPPRLPRPRPRPAHTPRP, the “shrunken log2 fold change” value was found to be 0.09.

Regarding RRIRGRPPRLPRPRPRPDFGPRP, the “shrunken log2 fold change” value was 0.0741.

On to RRIRRRPPRLPRPRPRPTTKPRP, for which the “shrunken log2 fold change” value came out at 0.0527.

Turning to RRIRERPPRLPRPRPRPYMFPRP, the “shrunken log2 fold change” value is -0.736.

Regarding RRIRHRPPRLPRPRPRPHVNPRP, the “shrunken log2 fold change” value was -0.183.

For the sequence RRIRARPPRLPRPRPRPVSGPRP, the “shrunken log2 fold change” value was 0.398.

For RRIRTRPPRLPRPRPRPPIQPRP, the “shrunken log2 fold change” value turned out to be 0.0675.

As for RRIRERPPRLPRPRPRPFWRPRP, the “shrunken log2 fold change” value is 0.0935.

Regarding RRIRWRPPRLPRPRPRPIMCPRP, the “shrunken log2 fold change” value was -0.0807.

RRIRLRPPRLPRPRPRPETLPRP: the “shrunken log2 fold change” value was found to be 0.228.

For the sequence RRIRFRPPRLPRPRPRPYSIPRP, the “shrunken log2 fold change” value was -0.186.

For the sequence RRIRFRPPRLPRPRPRPDVNPRP, the “shrunken log2 fold change” value stood at 0.00585.

For the sequence RRIRCRPPRLPRPRPRPKKAPRP, the “shrunken log2 fold change” value was -0.235.

As to RRIRDRPPRLPRPRPRPSNCPRP, the “shrunken log2 fold change” value is -0.576.

Turning to RRIRGRPPRLPRPRPRPYRFPRP, the “shrunken log2 fold change” value stood at 0.0893.

For the sequence RRIRPRPPRLPRPRPRPHFKPRP, the “shrunken log2 fold change” value was 1.37.

Turning to RRIRRRPPRLPRPRPRPAHNPRP, the “shrunken log2 fold change” value amounted to 0.344.

As for RRIRPRPPRLPRPRPRPVCHPRP, the “shrunken log2 fold change” value was -0.0724.

In the case of RRIRERPPRLPRPRPRPMYCPRP, the “shrunken log2 fold change” value is -0.064.

For the sequence RRIRYRPPRLPRPRPRPLCNPRP, the “shrunken log2 fold change” value is -0.0925.

RRIRTRPPRLPRPRPRPRMWPRP: the “shrunken log2 fold change” value came out at 0.227.

Take RRIRHRPPRLPRPRPRPKMRPRP: the “shrunken log2 fold change” value is 0.312.

Turning to RRIRFRPPRLPRPRPRPIPWPRP, the “shrunken log2 fold change” value was -0.14.

For the sequence RRIRYRPPRLPRPRPRPDKNPRP, the “shrunken log2 fold change” value is -0.558.

As to RRIRLRPPRLPRPRPRPGKHPRP, the “shrunken log2 fold change” value was -0.0923.

Regarding RRIRGRPPRLPRPRPRPENKPRP, the “shrunken log2 fold change” value is 0.32.

On to RRIRERPPRLPRPRPRPVILPRP, for which the “shrunken log2 fold change” value was -0.388.

With RRIRMRPPRLPRPRPRPTGCPRP, the “shrunken log2 fold change” value stood at 0.588.

On to RRIRYRPPRLPRPRPRPRSKPRP, for which the “shrunken log2 fold change” value was -0.439.

With RRIRARPPRLPRPRPRPMTIPRP, the “shrunken log2 fold change” value is -0.113.

RRIRKRPPRLPRPRPRPFECPRP: the “shrunken log2 fold change” value was -0.0669.

With RRIRMRPPRLPRPRPRPGCMPRP, the “shrunken log2 fold change” value is 0.968.

As to RRIRFRPPRLPRPRPRPEQMPRP, the “shrunken log2 fold change” value was 0.19.

Turning to RRIRDRPPRLPRPRPRPGMGPRP, the “shrunken log2 fold change” value was 0.645.

Regarding RRIRCRPPRLPRPRPRPLTCPRP, the “shrunken log2 fold change” value is -0.184.

RRIRLRPPRLPRPRPRPGRMPRP: the “shrunken log2 fold change” value is 0.123.

Consider RRIRIRPPRLPRPRPRPPVAPRP, for which the “shrunken log2 fold change” value was 0.123.

In the case of RRIRFRPPRLPRPRPRPDDWPRP, the “shrunken log2 fold change” value came out at 0.044.

On to RRIRDRPPRLPRPRPRPRDDPRP, for which the “shrunken log2 fold change” value was -0.0224.

Consider RRIRFRPPRLPRPRPRPNQWPRP, for which the “shrunken log2 fold change” value is -0.21.

As for RRIRYRPPRLPRPRPRPRKHPRP, the “shrunken log2 fold change” value is -0.483.

Turning to RRIRKRPPRLPRPRPRPMLKPRP, the “shrunken log2 fold change” value was found to be 0.954.

Take RRIRCRPPRLPRPRPRPAIYPRP: the “shrunken log2 fold change” value was -0.17.

RRIRRRPPRLPRPRPRPGYGPRP: the “shrunken log2 fold change” value stood at 0.238.

As for RRIRFRPPRLPRPRPRPWVKPRP, the “shrunken log2 fold change” value was -0.00968.

On to RRIRTRPPRLPRPRPRPHDFPRP, for which the “shrunken log2 fold change” value came out at 0.0369.

In the case of RRIRKRPPRLPRPRPRPDTNPRP, the “shrunken log2 fold change” value stood at 0.335.

Consider RRIRERPPRLPRPRPRPMWGPRP, for which the “shrunken log2 fold change” value was -0.016.

As to RRIRGRPPRLPRPRPRPRVRPRP, the “shrunken log2 fold change” value came out at 0.789.

Consider RRIRVRPPRLPRPRPRPMLIPRP, for which the “shrunken log2 fold change” value is -0.0178.

For the sequence RRIRERPPRLPRPRPRPYRYPRP, the “shrunken log2 fold change” value was -0.107.

In the case of RRIRSRPPRLPRPRPRPIHLPRP, the “shrunken log2 fold change” value turned out to be 0.0485.

On to RRIRNRPPRLPRPRPRPQEHPRP, for which the “shrunken log2 fold change” value is 0.422.

Turning to RRIRKRPPRLPRPRPRPFDRPRP, the “shrunken log2 fold change” value turned out to be 0.375.

As for RRIRLRPPRLPRPRPRPCMRPRP, the “shrunken log2 fold change” value was 0.188.

In the case of RRIRTRPPRLPRPRPRPAAKPRP, the “shrunken log2 fold change” value worked out at 0.217.

On to RRIRKRPPRLPRPRPRPAVIPRP, for which the “shrunken log2 fold change” value stood at 0.076.

With RRIRVRPPRLPRPRPRPSDCPRP, the “shrunken log2 fold change” value was found to be 0.234.

Consider RRIRERPPRLPRPRPRPMHIPRP, for which the “shrunken log2 fold change” value is -0.185.

As for RRIRGRPPRLPRPRPRPYNLPRP, the “shrunken log2 fold change” value was -0.487.

RRIRHRPPRLPRPRPRPHWCPRP: the “shrunken log2 fold change” value is -0.0566.

Consider RRIRARPPRLPRPRPRPFSFPRP, for which the “shrunken log2 fold change” value was -0.235.

Consider RRIRPRPPRLPRPRPRPPTQPRP, for which the “shrunken log2 fold change” value worked out at 0.12.

For the sequence RRIRHRPPRLPRPRPRPLKTPRP, the “shrunken log2 fold change” value is 0.0116.

For the sequence RRIRNRPPRLPRPRPRPMIIPRP, the “shrunken log2 fold change” value worked out at 0.0546.

RRIRDRPPRLPRPRPRPVDRPRP: the “shrunken log2 fold change” value stood at 0.358.

Regarding RRIRTRPPRLPRPRPRPHPYPRP, the “shrunken log2 fold change” value was found to be 0.0733.

For RRIRERPPRLPRPRPRPNVNPRP, the “shrunken log2 fold change” value is -0.34.

For the sequence RRIRARPPRLPRPRPRPRQTPRP, the “shrunken log2 fold change” value came out at 0.535.

RRIRHRPPRLPRPRPRPQWPPRP: the “shrunken log2 fold change” value was 0.112.

RRIRERPPRLPRPRPRPIEAPRP: the “shrunken log2 fold change” value was -0.0164.

In the case of RRIRPRPPRLPRPRPRPDGCPRP, the “shrunken log2 fold change” value is -0.228.

As for RRIRWRPPRLPRPRPRPIFTPRP, the “shrunken log2 fold change” value was -0.173.

With RRIRWRPPRLPRPRPRPGGYPRP, the “shrunken log2 fold change” value was determined as 0.215.

As for RRIRMRPPRLPRPRPRPTRIPRP, the “shrunken log2 fold change” value worked out at 0.447.

For the sequence RRIRDRPPRLPRPRPRPTNVPRP, the “shrunken log2 fold change” value is -0.138.

In the case of RRIRIRPPRLPRPRPRPSDPPRP, the “shrunken log2 fold change” value was -0.136.

As to RRIRHRPPRLPRPRPRPKEDPRP, the “shrunken log2 fold change” value was 2.87.

On to RRIRVRPPRLPRPRPRPKVEPRP, for which the “shrunken log2 fold change” value was 0.317.

With RRIRIRPPRLPRPRPRPEDVPRP, the “shrunken log2 fold change” value is -0.0939.

In the case of RRIRMRPPRLPRPRPRPFETPRP, the “shrunken log2 fold change” value was -0.00884.

In the case of RRIRSRPPRLPRPRPRPEGNPRP, the “shrunken log2 fold change” value was -0.0126.

For RRIRCRPPRLPRPRPRPSNEPRP, the “shrunken log2 fold change” value is -0.379.

In the case of RRIRQRPPRLPRPRPRPNRCPRP, the “shrunken log2 fold change” value is -0.0278.

On to RRIRPRPPRLPRPRPRPCFCPRP, for which the “shrunken log2 fold change” value came out at 0.299.

For RRIRFRPPRLPRPRPRPFTRPRP, the “shrunken log2 fold change” value was determined as 0.0083.

With RRIRYRPPRLPRPRPRPSTYPRP, the “shrunken log2 fold change” value was -0.332.

Regarding RRIRARPPRLPRPRPRPQPCPRP, the “shrunken log2 fold change” value was found to be 0.276.

Regarding RRIRVRPPRLPRPRPRPYTDPRP, the “shrunken log2 fold change” value is -0.339.

Regarding RRIRSRPPRLPRPRPRPNFRPRP, the “shrunken log2 fold change” value was -0.113.

As for RRIRHRPPRLPRPRPRPLMHPRP, the “shrunken log2 fold change” value is -0.414.

Take RRIRNRPPRLPRPRPRPYMEPRP: the “shrunken log2 fold change” value is -0.0924.

Regarding RRIRLRPPRLPRPRPRPFSPPRP, the “shrunken log2 fold change” value is 2.3.

For the sequence RRIRNRPPRLPRPRPRPEPEPRP, the “shrunken log2 fold change” value worked out at 0.0273.

Take RRIRMRPPRLPRPRPRPYIPPRP: the “shrunken log2 fold change” value was -1.28.

Regarding RRIRERPPRLPRPRPRPWRSPRP, the “shrunken log2 fold change” value was determined as 0.196.

Consider RRIRCRPPRLPRPRPRPGNHPRP, for which the “shrunken log2 fold change” value is -0.587.

RRIRTRPPRLPRPRPRPEDYPRP: the “shrunken log2 fold change” value is -0.00822.

Turning to RRIRVRPPRLPRPRPRPIYPPRP, the “shrunken log2 fold change” value is -0.413.

Consider RRIRHRPPRLPRPRPRPFNRPRP, for which the “shrunken log2 fold change” value is 0.00911.

RRIRNRPPRLPRPRPRPEAIPRP: the “shrunken log2 fold change” value is 0.113.

For the sequence RRIRERPPRLPRPRPRPRQIPRP, the “shrunken log2 fold change” value came to 0.0409.

As for RRIRTRPPRLPRPRPRPIALPRP, the “shrunken log2 fold change” value was -0.156.

Regarding RRIRMRPPRLPRPRPRPNCVPRP, the “shrunken log2 fold change” value was -0.00674.

RRIRTRPPRLPRPRPRPPECPRP: the “shrunken log2 fold change” value is 0.0838.

On to RRIRSRPPRLPRPRPRPRWNPRP, for which the “shrunken log2 fold change” value stood at 0.0205.

In the case of RRIRMRPPRLPRPRPRPQVFPRP, the “shrunken log2 fold change” value came to 0.281.

With RRIRWRPPRLPRPRPRPPLRPRP, the “shrunken log2 fold change” value is 0.418.

RRIRERPPRLPRPRPRPLVSPRP: the “shrunken log2 fold change” value was -0.055.

With RRIRKRPPRLPRPRPRPVPNPRP, the “shrunken log2 fold change” value was -0.00404.

As to RRIRARPPRLPRPRPRPNVNPRP, the “shrunken log2 fold change” value was -0.0484.

Turning to RRIRHRPPRLPRPRPRPKRCPRP, the “shrunken log2 fold change” value is -0.0661.

On to RRIRARPPRLPRPRPRPDDVPRP, for which the “shrunken log2 fold change” value worked out at 0.0875.

For the sequence RRIRCRPPRLPRPRPRPNNKPRP, the “shrunken log2 fold change” value was -0.71.

On to RRIRVRPPRLPRPRPRPMTEPRP, for which the “shrunken log2 fold change” value was 0.0198.

On to RRIRIRPPRLPRPRPRPRREPRP, for which the “shrunken log2 fold change” value came to 0.123.

Turning to RRIRLRPPRLPRPRPRPYTSPRP, the “shrunken log2 fold change” value was -0.33.

On to RRIRYRPPRLPRPRPRPAADPRP, for which the “shrunken log2 fold change” value was -0.0866.

Regarding RRIRCRPPRLPRPRPRPQWKPRP, the “shrunken log2 fold change” value was -0.0376.

In the case of RRIRCRPPRLPRPRPRPFIMPRP, the “shrunken log2 fold change” value is -0.765.

Turning to RRIRTRPPRLPRPRPRPSVHPRP, the “shrunken log2 fold change” value is -0.237.

RRIRNRPPRLPRPRPRPSWGPRP: the “shrunken log2 fold change” value is -0.139.
